Target: HLA-A2 (recombinant, on Raji-HLA-A2 target cells) (human)
Assay: cell-based or functional assay

inhibition of effector T cells expressing the two CARs at a 1:1 ratio (CD107a figure series): 50% | percent inhibition of CD107a expression on CD8 T cells; 100*(1-(CD107a with Raji-A2/CD107a with Raji)), aCAR to iCAR ratio 1:5: 84%
B1: HLA-A2 iCAR (inhibitory chimeric antigen receptor; HLA-A2 scFv from hybridoma BB7.2 fused to PD-1 hinge, transmembrane and intracellular domains) (receptor)
chain: EQKLISEEDLQVQLQQSGPELVKPGASVKMSCKASGYTFTSYHIQWVKQRPGQGLEWIGWIYPGDGSTQYNEKFKGKTTLTADKSSSTAYMLLSSLTSEDSAIYFCAREGTYYAMDYWGQGTSVTVSSGGGGSGGGGSGGGGSDVLMTQTPLSLPVSLGDQVSISCRSSQSIVHSNGNTYLEWYLQKPGQSPKLLIYKVSNRFSGVPDRFSGSGSGTDFTLKISRVEAEDLGVYYCFQGSHVPRTFGGGTKLEIKTERRAEVPTAHPSPSPRPAGQFQTLVVGVVGGLLGSLVLLVWVLAVICSRAARGTIGARRTGQPLKEDPSAVPVFSVDYGELDFQWREKTPEPPVPCVPEQTEYATIVFPSGMGTSSPARRGSADGPRSAQPLRPEDGHCSWPL

Source: patent US20200316120A1 (IMMPACT BIO, published 2020)
